These results are taken from paper PMC11969024 (2025).

The chains are these.
B1: peptide HD2 (from tick evasin EVA4) / CCL4 (biotinylated, synthetic) (parent complex)
chain 1: EEDDYTAYAPLTCYFT
chain 2: APMGSDPPTACCFSYTARKLPRNFVVDYYETSSLCSQPAVVFQTKRSKQVCADPSESWVQEYVYDLELN

The variants in this assay derive from B1.
Regarding chain 1 P10T, the enrichment was -7.43 log2 (difference from the parental peptide). Consider chain 1 P10E, for which the enrichment is -4.88 log2 (difference from the parental peptide). With chain 1 P10D the figure was -2.89 log2 (difference from the parental peptide).

With chain 1 P10Q, the enrichment is -4.96 log2 (difference from the parental peptide).

On to chain 1 P10Y, for which the enrichment is -7.13 log2 (difference from the parental peptide).

Consider chain 1 P10G, for which the enrichment was -6.62 log2 (difference from the parental peptide). With chain 1 A9I the figure was -7.98 log2 (difference from the parental peptide); with chain 1 A9F, -6.63 log2 (difference from the parental peptide); with chain 1 A9R, -1.96 log2 (difference from the parental peptide). The result for chain 1 A9E reads 0.657 log2 (difference from the parental peptide); that for chain 1 A9W, -3.72 log2 (difference from the parental peptide); that for chain 1 A9L, -6 log2 (difference from the parental peptide). With chain 1 A9N, the enrichment is -4.06 log2 (difference from the parental peptide). With chain 1 A9K the figure was -3.61 log2 (difference from the parental peptide); with chain 1 A9Y, -5.65 log2 (difference from the parental peptide). As to chain 1 A9H, the enrichment was -6.2 log2 (difference from the parental peptide). With chain 1 A9T the figure was -2.45 log2 (difference from the parental peptide); with chain 1 A9S, -0.615 log2 (difference from the parental peptide); with chain 1 A9G, -5.26 log2 (difference from the parental peptide). chain 1 A9Q: the enrichment was -0.79 log2 (difference from the parental peptide). With chain 1 A9P the figure was -7.37 log2 (difference from the parental peptide). For the variant chain 1 L11H, the enrichment was 1.71 log2 (difference from the parental peptide).

As for chain 1 L11S, the enrichment is -0.188 log2 (difference from the parental peptide).

For the variant chain 1 L11K, the enrichment was 1.88 log2 (difference from the parental peptide).

In the case of chain 1 L11G, the enrichment is -4.26 log2 (difference from the parental peptide). The result for chain 1 L11F reads -0.923 log2 (difference from the parental peptide). Turning to chain 1 L11N, the enrichment is -3.21 log2 (difference from the parental peptide). chain 1 L11P: the enrichment was -7.67 log2 (difference from the parental peptide). As for chain 1 L11E, the enrichment was -2.34 log2 (difference from the parental peptide). The result for chain 1 D4V reads -4.25 log2 (difference from the parental peptide); that for chain 1 D4N, -2.63 log2 (difference from the parental peptide); that for chain 1 D4P, -1.94 log2 (difference from the parental peptide).

Consider chain 1 D4A, for which the enrichment is -3.33 log2 (difference from the parental peptide). With chain 1 D4Y the figure was -0.805 log2 (difference from the parental peptide); with chain 1 D4G, -4.2 log2 (difference from the parental peptide). As for chain 1 D4S, the enrichment was -3.38 log2 (difference from the parental peptide).

Regarding chain 1 D4L, the enrichment was -3.89 log2 (difference from the parental peptide).

On to chain 1 D4K, for which the enrichment was -5.45 log2 (difference from the parental peptide). With chain 1 Y8A the figure was -1.67 log2 (difference from the parental peptide). The result for chain 1 Y8F reads 0.697 log2 (difference from the parental peptide); that for chain 1 Y8N, -2.94 log2 (difference from the parental peptide); that for chain 1 Y8P, -0.864 log2 (difference from the parental peptide). The result for chain 1 Y8L reads -7.61 log2 (difference from the parental peptide); that for chain 1 Y8W, -0.806 log2 (difference from the parental peptide). chain 1 Y8I: the enrichment was -7.37 log2 (difference from the parental peptide). Turning to chain 1 Y8S, the enrichment is -2.96 log2 (difference from the parental peptide). With chain 1 Y8E the figure was -5.75 log2 (difference from the parental peptide). For chain 1 Y8T, the enrichment was -6.05 log2 (difference from the parental peptide). With chain 1 T12E the figure was -1.15 log2 (difference from the parental peptide); with chain 1 T12D, -0.0833 log2 (difference from the parental peptide). With chain 1 T12N the figure was 1.46 log2 (difference from the parental peptide); with chain 1 T12Y, 2.43 log2 (difference from the parental peptide); with chain 1 A7G, 0.187 log2 (difference from the parental peptide). The result for chain 1 A7I reads -0.497 log2 (difference from the parental peptide).

With chain 1 A7F, the enrichment was -2.35 log2 (difference from the parental peptide). With chain 1 A7P the figure was 1.22 log2 (difference from the parental peptide); with chain 1 A7D, 1.81 log2 (difference from the parental peptide).

Regarding chain 1 A7M, the enrichment is 2.06 log2 (difference from the parental peptide). With chain 1 A7Q the figure was 2.27 log2 (difference from the parental peptide).

As for chain 1 A7T, the enrichment was -0.191 log2 (difference from the parental peptide). The result for chain 1 A7L reads -0.0909 log2 (difference from the parental peptide). With chain 1 A7K the figure was 1.68 log2 (difference from the parental peptide). The result for chain 1 A7V reads -1.76 log2 (difference from the parental peptide); that for chain 1 Y5C, -8.73 log2 (difference from the parental peptide); that for chain 1 Y5F, 0.426 log2 (difference from the parental peptide). In the case of chain 1 Y5H, the enrichment was -5.89 log2 (difference from the parental peptide). On to chain 1 Y5P, for which the enrichment is -6.3 log2 (difference from the parental peptide). For chain 1 Y5M, the enrichment was -3.3 log2 (difference from the parental peptide). The result for chain 1 Y5V reads -5.67 log2 (difference from the parental peptide); that for chain 1 Y5S, -5.86 log2 (difference from the parental peptide). The result for chain 1 Y5R reads -5.62 log2 (difference from the parental peptide); that for chain 1 Y5T, -4.65 log2 (difference from the parental peptide); that for chain 1 Y5E, -2.05 log2 (difference from the parental peptide).

As to chain 1 T16L, the enrichment was 0.489 log2 (difference from the parental peptide). With chain 1 T16M the figure was 0.277 log2 (difference from the parental peptide); with chain 1 T16C, -0.0497 log2 (difference from the parental peptide); with chain 1 T16H, 0.117 log2 (difference from the parental peptide).

In the case of chain 1 T16R, the enrichment was -0.298 log2 (difference from the parental peptide). With chain 1 T16E the figure was 0.827 log2 (difference from the parental peptide); with chain 1 T16F, -0.0684 log2 (difference from the parental peptide); with chain 1 T16P, 1.45 log2 (difference from the parental peptide).

In the case of chain 1 T16W, the enrichment was -0.489 log2 (difference from the parental peptide).

As to chain 1 T16A, the enrichment is 1.47 log2 (difference from the parental peptide). Turning to chain 1 Y14N, the enrichment was -3.47 log2 (difference from the parental peptide). Turning to chain 1 Y14P, the enrichment was -6.84 log2 (difference from the parental peptide).

On to chain 1 Y14M, for which the enrichment is -2.24 log2 (difference from the parental peptide). The result for chain 1 Y14Q reads -2.97 log2 (difference from the parental peptide). The result for chain 1 Y14A reads -3.96 log2 (difference from the parental peptide); that for chain 1 Y14D, -5.1 log2 (difference from the parental peptide). With chain 1 Y14W the figure was -0.462 log2 (difference from the parental peptide).

For the variant chain 1 Y14E, the enrichment is -5.52 log2 (difference from the parental peptide). With chain 1 Y14G the figure was -6.07 log2 (difference from the parental peptide); with chain 1 Y14F, 0.581 log2 (difference from the parental peptide). With chain 1 Y14H the figure was -0.0476 log2 (difference from the parental peptide). The result for chain 1 Y14S reads -3.51 log2 (difference from the parental peptide). chain 1 Y14K: the enrichment was -5.73 log2 (difference from the parental peptide). The result for chain 1 Y14L reads -2.84 log2 (difference from the parental peptide); that for chain 1 Y14R, -4.11 log2 (difference from the parental peptide). With chain 1 F15S the figure was -0.0882 log2 (difference from the parental peptide); with chain 1 F15I, 0.969 log2 (difference from the parental peptide). With chain 1 F15E the figure was -1.26 log2 (difference from the parental peptide); with chain 1 F15Q, 0.832 log2 (difference from the parental peptide). chain 1 F15L: the enrichment was 0.921 log2 (difference from the parental peptide). With chain 1 F15R the figure was 0.256 log2 (difference from the parental peptide); with chain 1 F15Y, 0.0726 log2 (difference from the parental peptide); with chain 1 F15H, 0.795 log2 (difference from the parental peptide). The result for chain 1 F15T reads 1.23 log2 (difference from the parental peptide). With chain 1 F15N the figure was -0.875 log2 (difference from the parental peptide); with chain 1 D3R, -4.7 log2 (difference from the parental peptide).

Regarding chain 1 D3H, the enrichment is -1.73 log2 (difference from the parental peptide). With chain 1 D3Y the figure was -1.16 log2 (difference from the parental peptide). With chain 1 D3S the figure was -2.37 log2 (difference from the parental peptide). The result for chain 1 D3I reads -3.64 log2 (difference from the parental peptide); that for chain 1 D3P, -2.56 log2 (difference from the parental peptide). As for chain 1 D3T, the enrichment was -2.72 log2 (difference from the parental peptide). With chain 1 T6V the figure was -3.51 log2 (difference from the parental peptide); with chain 1 T6S, 2.87 log2 (difference from the parental peptide).

chain 1 T6Q: the enrichment is 0.872 log2 (difference from the parental peptide). The result for chain 1 T6G reads 2.91 log2 (difference from the parental peptide); that for chain 1 T6L, -2.59 log2 (difference from the parental peptide). With chain 1 T6E the figure was 2.94 log2 (difference from the parental peptide); with chain 1 T6W, 0.361 log2 (difference from the parental peptide); with chain 1 T6N, 1.16 log2 (difference from the parental peptide).

For the variant chain 1 T6R, the enrichment was -0.342 log2 (difference from the parental peptide). In the case of chain 1 C13I, the enrichment was -3.66 log2 (difference from the parental peptide). With chain 1 C13M the figure was -2.33 log2 (difference from the parental peptide); with chain 1 C13P, -9.17 log2 (difference from the parental peptide). With chain 1 C13A the figure was -7.87 log2 (difference from the parental peptide); with chain 1 C13E, -9.5 log2 (difference from the parental peptide); with chain 1 C13L, -6.3 log2 (difference from the parental peptide). With chain 1 C13T the figure was -4.09 log2 (difference from the parental peptide). On to chain 1 C13N, for which the enrichment is -7.77 log2 (difference from the parental peptide). The result for chain 1 C13K reads -8.69 log2 (difference from the parental peptide); that for chain 1 C13Y, -5.99 log2 (difference from the parental peptide); that for chain 1 C13G, -9 log2 (difference from the parental peptide). As to chain 1 E1S, the enrichment was -0.537 log2 (difference from the parental peptide). Turning to chain 1 E1Y, the enrichment is -1.6 log2 (difference from the parental peptide). With chain 1 E1R the figure was -3.09 log2 (difference from the parental peptide); with chain 1 E1Q, -0.262 log2 (difference from the parental peptide). With chain 1 E1A the figure was -0.519 log2 (difference from the parental peptide); with chain 1 E1I, -0.889 log2 (difference from the parental peptide); with chain 1 E1P, -1.59 log2 (difference from the parental peptide).

With chain 1 E1V, the enrichment was -1.21 log2 (difference from the parental peptide).

As for chain 1 E2L, the enrichment is -1.83 log2 (difference from the parental peptide). With chain 1 E2D the figure was 1.08 log2 (difference from the parental peptide). The result for chain 1 E2A reads -0.79 log2 (difference from the parental peptide); that for chain 1 E2R, -4.37 log2 (difference from the parental peptide); that for chain 1 E2S, -2.25 log2 (difference from the parental peptide). In the case of chain 1 E2T, the enrichment is -2.75 log2 (difference from the parental peptide). Regarding chain 1 E2K, the enrichment was -3.72 log2 (difference from the parental peptide).
